From the supplement of paper PMC7877785
± gives the uncertainty stated by the source.

Assay: self-splicing fitness, log relative to wild type (ln ratio); higher = more splicing; Tetrahymena group I intron in knt gene, E. coli kanamycin selection, DiMSum; sequences stand for … in CUCUCU…GGAGGGAAAAGUUAUCAGGCAUGCACCUGGUAGCUAGUCUUUAAACCAAUAGAUUGCAUCGGUUUAAAAGGCAAGACCGUCAAAUUGCGGGAAAGGGGUCAACAGCCGUUCAGUACCAAGUCUCAGGGGAAACUUUGAGAUGGCCUUGCAAAGGGUAUGGUAAUAAGCUGACGGACAUGGUCCUAACCACGCAGCCAAGUCCUAAGUCAACAGAUCUUCUGUUGAUAUGGAUGCAGUUCACAGACUAAAUGUCGGUCGGGGAAGAUGUAUUCUUCUCAUAAGAUAUAGUCGGACCUCUCCUUAAUGGGAGCUAGCGGAUGAAGUGAUGCAACACUGGAGCCGCUGGGAACUAAUUUGUAUGCGAAAGUAUAUUGAUUAGUUUUGGAGUACUCGUGGUCG
Outline: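 Colonies from six replicate transformations of E. coli BL21(DE3) were pooled and amplicon-sequenced on an Illumina HiSeq 2500. The library placed an intron with all eight P1ex-region nucleotides randomised inside the knt kanamycin-resistance gene on pET-22b(+), and cells grew overnight at 37°C or 30°C on LB agar with or without 25 μg/mL kanamycin (plus 100 μg/mL carbenicillin, 50 μM IPTG, 0.2% rhamnose). Fitness is the DiMSum error-weighted combination of wild-type-normalised replicate fold changes, kanamycin versus none.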

Sequence	self-splicing fitness (ln) (30 °C)	self-splicing fitness (ln) (37 °C)
UGGCAGCAAUAUUACGCGUG	-1.25 ± 0.14	-0.356 ± 0.14
CCGCAGCAAUAUUACGACUG	-3.17 ± 0.14	-1.71 ± 0.13
AUAUAGCAAUAUUACGGUAU	-3.75 ± 0.32	-1.45 ± 0.2
UAAUAGCAAUAUUACGGUGU	-2.98 ± 0.21	-2.93 ± 0.3
CCAUAGCAAUAUUACGGGUU	-3.69 ± 0.17	-3.79 ± 0.34
CGAGAGCAAUAUUACGUUGA	-2.79 ± 0.38	–
UUGUAGCAAUAUUACGUAUC	-4.12 ± 0.31	-3.03 ± 0.31
CCGCAGCAAUAUUACGAAAG	-0.925 ± 0.066	0.125 ± 0.084
UCAAAGCAAUAUUACGUAAC	-3.86 ± 0.21	-2.39 ± 0.27
AGCUAGCAAUAUUACGUACG	-1.85 ± 0.07	-1.21 ± 0.081
CGAAAGCAAUAUUACGCGCG	-2.64 ± 0.16	-1.34 ± 0.17
GGGCAGCAAUAUUACGCUUU	-0.861 ± 0.057	0.0207 ± 0.075
UGAAAGCAAUAUUACGCAAG	-2.4 ± 0.15	-2 ± 0.2
UCUUAGCAAUAUUACGCACA	-1.04 ± 0.22	-0.879 ± 0.23
CAUAAGCAAUAUUACGACAA	-3.05 ± 0.28	-1.59 ± 0.19
GUUAAGCAAUAUUACGUCGU	-0.93 ± 0.078	-0.441 ± 0.081
CUACAGCAAUAUUACGGGUC	-4.01 ± 0.23	-2.44 ± 0.21
GGGGAGCAAUAUUACGCCGA	-2.05 ± 0.5	–
GUAGAGCAAUAUUACGGUGU	-1.82 ± 0.081	-1.23 ± 0.099
GUGGAGCAAUAUUACGGCUU	-1.6 ± 0.28	–
GGGAAGCAAUAUUACGCCGG	-3.75 ± 0.29	–
CCCUAGCAAUAUUACGACUU	-3.27 ± 0.23	-2.7 ± 0.29
GAGGAGCAAUAUUACGUGAG	-3.37 ± 0.4	-2.22 ± 0.26
CCACAGCAAUAUUACGGGUA	-3.44 ± 0.21	-2.88 ± 0.18
GCUCAGCAAUAUUACGAGGG	-2.38 ± 0.16	-2.57 ± 0.25

Sequence	self-splicing fitness (ln) (30 °C)	self-splicing fitness (ln) (37 °C)
GGCUAGCAAUAUUACGCAGU	-1.78 ± 0.34	–
GUACAGCAAUAUUACGAUGG	-3.3 ± 0.17	-2.48 ± 0.17
AGGCAGCAAUAUUACGACCC	-0.357 ± 0.31	-0.702 ± 0.5
AUACAGCAAUAUUACGAAUU	-2.71 ± 0.15	-1.16 ± 0.14
GUGUAGCAAUAUUACGCAGU	-3.25 ± 0.21	-2.46 ± 0.23
GUUCAGCAAUAUUACGCGAA	-2.26 ± 0.27	-1.82 ± 0.28
UAUAAGCAAUAUUACGGAUC	-2.57 ± 0.15	-1.58 ± 0.18
UAAAAGCAAUAUUACGCGUC	-3.53 ± 0.24	-2.7 ± 0.21
UCAUAGCAAUAUUACGAUUG	-2.31 ± 0.13	-1.38 ± 0.13
UAUAAGCAAUAUUACGGACA	-0.702 ± 0.11	0.416 ± 0.13
AGCAAGCAAUAUUACGACGG	-2.35 ± 0.16	-0.575 ± 0.13
AUUCAGCAAUAUUACGAACA	-0.36 ± 0.099	-0.341 ± 0.11
UCUCAGCAAUAUUACGUUAA	-2.79 ± 0.19	-2.26 ± 0.17
ACUUAGCAAUAUUACGAUUU	-0.382 ± 0.07	0.252 ± 0.092
AUGCAGCAAUAUUACGUCCA	-1.72 ± 0.11	-0.786 ± 0.11
UAUGAGCAAUAUUACGGUAC	-4.01 ± 0.43	-2.66 ± 0.48
CCCUAGCAAUAUUACGUAUU	-3.8 ± 0.17	-2.92 ± 0.18
ACAUAGCAAUAUUACGUUGC	-4.02 ± 0.33	-2 ± 0.28
AACAAGCAAUAUUACGUGGC	-3.61 ± 0.18	-2.52 ± 0.14
CUUUAGCAAUAUUACGCUAG	-3.45 ± 0.31	-2.11 ± 0.27
CAUCAGCAAUAUUACGUCGG	-0.265 ± 0.055	-0.317 ± 0.076
UGUGAGCAAUAUUACGUUCG	-3.41 ± 0.22	-1.32 ± 0.15
CGCUAGCAAUAUUACGUGAG	-3.88 ± 0.33	-1.64 ± 0.14
CCGUAGCAAUAUUACGAGUG	-1.07 ± 0.069	-0.807 ± 0.083
